Data published in publication PMC9076634, “Fibronectin binding protein B binds to loricrin and promotes corneocyte adhesion by Staphylococcus aureus” (Nature Communications, 2022).

Molecular target: T1, recombinant GST-tagged human loricrin (GST-loricrin) (human, UniProt P23490 1-312)
T1 construct: loricrin, human, full length; also called GST-tagged full length loricrin
T1 sequence (looked up): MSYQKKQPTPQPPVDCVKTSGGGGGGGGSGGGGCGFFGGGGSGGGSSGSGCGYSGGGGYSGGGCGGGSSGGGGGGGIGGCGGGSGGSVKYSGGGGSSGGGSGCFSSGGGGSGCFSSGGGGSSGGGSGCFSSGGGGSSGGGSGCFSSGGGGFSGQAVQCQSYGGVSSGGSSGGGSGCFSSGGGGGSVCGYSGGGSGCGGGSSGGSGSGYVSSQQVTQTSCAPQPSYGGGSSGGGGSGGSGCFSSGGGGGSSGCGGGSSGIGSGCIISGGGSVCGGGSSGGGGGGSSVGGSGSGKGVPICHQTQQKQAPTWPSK
Assay: dynamic force spectroscopy (AFM); as the single-molecule force spectroscopy, retraction speeds 1, 2.5, 5 and 10 µm s^-1; Bell-Evans fit of the high-force regime (loading rates 1.4 × 10^4 to 5 × 10^5 pN s^-1)
Conditions: one partner purified

B1: fibronectin binding protein B (FnBPB) on S. aureus SH1000 4X (pFnBPB) cells (natural protein)
chain: ASEQNNTTVEESGSSATESKASETQTTTNNVNTIDETQSYSATSTEQPSQSTQVTTEEAPKTVQAPKVETSRVDLPSEKVADKETTGTQVDIAQPSNVSEIKPRMKRSTDVTAVAEKEVVEETKATGTDVTNKVEVEEGSEIVGHKQDTNVVNPHNAERVTLKYKWKFGEGIKAGDYFDFTLSDNVETHGISTLRKVPEIKSTDGQVMATGEIIGERKVRYTFKEYVQEKKDLTAELSLNLFIDPTTVTQKGNQNVEVKLGETTVSKIFNIQYLGGVRDNWGVTANGRIDTLNKVDGKFSHFAYMKPNNQSLSSVTVTGQVTKGNKPGVNNPTVKVYKHIGSDDLAESVYAKLDDVSKFEDVTDNMSLDFDTNGGYSLNFNNLDQSKNYVIKYEGYYDSNASNLEFQTHLFGYYNYYYTSNLTWKNGVAFYSNNAQGDGKDKLKEPIIEHSTPIELEFKSEPPVEKHELTGTIEESNDSKPIDFEYHTAVEGAEGHAEGTIETEEDSIHVDFEESTHENSKHHADVVEYEEDTNPGGGQVTTESNLVEFDEDSTKGIVTGAVSDHTTIEDTKEYTTESNLIELVDELPEEHGQAQGPIEEITENNHHISHSGLGTENGHGNYGVIEEIEENSHVDIKSELGYEGGQNSGNQSFEEDTEEDKPKYEQGGNIVDIDFDSVPQIHGQNNGNQSFEEDTEKDKPKYEQGGNIIDIDFDSVPHIHGFNKHTEIIEEDTNKDKPNYQFGGHNSVDFEEDTLPQVSGHNEGQQTIEEDTTPPIVPPTPPTPEVPSEPETPTPPTPEVPSEPETPTPPTPEVPTEPGKPIPPAKEEPKKPSKPVEQGKVVTPVIEINEKVKAVVPTKKAQSKKSELPET
For B1, the koff was 5.8e-09 s⁻¹.
